Measured values from article PMC7299630.

Molecular target: DAP3-GST (UniProt P51398 1-398)
Assay: EMSA

Binder | binding result
MAGT1 RNA duplex probe (structured_RNA) RNA: GCUAAUUUUUGUGUUUUUAGUAGAGACCUCGAGGUCUCUACUAAAAAUAUGAAAAUUAGC | no binding
HTR2C RNA duplex probe (structured_RNA) RNA: AUCAUGCACCUCUGCGCUAUAUCGCUGGAUCGGUAUGUAGCAAUACGUAAUCCUAUUGAGCAUAGCCGUUUCAAUUCGCGGACUAAGGCCAUCAUGAAGAUUGCUAUUGUUUGGGCAAUUUCUAUAGGUAAAUAAAACUUUUUGGCCAUAAGAAUUGCAGCGGCUAUGCUCAAUACUUUCGGAUUAUGUACUGUGAACAACGUACAGACGUCGACUGGUAACAUUUGCGUUUGAUCGGGUUCU | no binding
